Source: patent US20240201167A1 (ALBERT EINSTEIN COLLEGE OF MEDICINE, published 2024)

Columns and labels:
[1] = molecular target: T1, SorCS3 expressed on cells (UniProt Q9UPU3 134-1222, limits assumed); test: cell-cell binding
T1 construct: whole, on cells
T1 sequence (looked up): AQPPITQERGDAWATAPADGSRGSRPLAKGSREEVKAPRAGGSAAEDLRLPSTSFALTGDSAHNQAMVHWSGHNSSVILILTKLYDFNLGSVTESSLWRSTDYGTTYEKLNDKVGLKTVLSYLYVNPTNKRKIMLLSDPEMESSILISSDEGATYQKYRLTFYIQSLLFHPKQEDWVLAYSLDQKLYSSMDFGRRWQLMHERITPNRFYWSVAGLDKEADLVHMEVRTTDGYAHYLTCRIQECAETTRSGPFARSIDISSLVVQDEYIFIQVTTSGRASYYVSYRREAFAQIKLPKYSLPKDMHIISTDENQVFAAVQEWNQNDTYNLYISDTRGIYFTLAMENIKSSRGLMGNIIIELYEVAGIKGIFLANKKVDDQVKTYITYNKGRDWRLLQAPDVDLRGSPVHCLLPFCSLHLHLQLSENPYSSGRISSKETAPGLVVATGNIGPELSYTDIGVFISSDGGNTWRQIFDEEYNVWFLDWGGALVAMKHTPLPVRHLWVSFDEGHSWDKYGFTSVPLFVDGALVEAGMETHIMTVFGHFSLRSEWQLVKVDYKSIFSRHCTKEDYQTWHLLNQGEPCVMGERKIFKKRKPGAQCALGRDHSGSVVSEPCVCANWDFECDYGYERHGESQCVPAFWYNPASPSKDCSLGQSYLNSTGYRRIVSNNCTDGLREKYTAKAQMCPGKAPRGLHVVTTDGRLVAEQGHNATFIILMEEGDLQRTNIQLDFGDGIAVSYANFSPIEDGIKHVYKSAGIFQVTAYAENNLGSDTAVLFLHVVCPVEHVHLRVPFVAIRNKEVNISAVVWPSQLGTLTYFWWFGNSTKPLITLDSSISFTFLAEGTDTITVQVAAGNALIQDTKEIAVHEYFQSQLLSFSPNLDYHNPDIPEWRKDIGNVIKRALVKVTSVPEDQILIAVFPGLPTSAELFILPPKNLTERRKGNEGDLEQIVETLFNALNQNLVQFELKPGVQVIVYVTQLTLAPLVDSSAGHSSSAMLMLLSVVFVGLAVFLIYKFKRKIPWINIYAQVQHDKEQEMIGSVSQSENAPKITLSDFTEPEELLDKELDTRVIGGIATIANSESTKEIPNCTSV

[2] = molecular target: T2, Sortilin expressed on cells (UniProt Q99523 78-831, limits assumed); test: cell-cell binding
T2 construct: whole, on cells

[3] = molecular target: T3, SorCS2 expressed on cells (UniProt Q96PQ0 51-1159, limits assumed); test: cell-cell binding
T3 construct: whole, on cells

[4] = molecular target: T4, SorCS1 expressed on cells (UniProt Q8WY21 34-1168, limits assumed); test: cell-cell binding
T4 construct: whole, on cells
T4 sequence (looked up): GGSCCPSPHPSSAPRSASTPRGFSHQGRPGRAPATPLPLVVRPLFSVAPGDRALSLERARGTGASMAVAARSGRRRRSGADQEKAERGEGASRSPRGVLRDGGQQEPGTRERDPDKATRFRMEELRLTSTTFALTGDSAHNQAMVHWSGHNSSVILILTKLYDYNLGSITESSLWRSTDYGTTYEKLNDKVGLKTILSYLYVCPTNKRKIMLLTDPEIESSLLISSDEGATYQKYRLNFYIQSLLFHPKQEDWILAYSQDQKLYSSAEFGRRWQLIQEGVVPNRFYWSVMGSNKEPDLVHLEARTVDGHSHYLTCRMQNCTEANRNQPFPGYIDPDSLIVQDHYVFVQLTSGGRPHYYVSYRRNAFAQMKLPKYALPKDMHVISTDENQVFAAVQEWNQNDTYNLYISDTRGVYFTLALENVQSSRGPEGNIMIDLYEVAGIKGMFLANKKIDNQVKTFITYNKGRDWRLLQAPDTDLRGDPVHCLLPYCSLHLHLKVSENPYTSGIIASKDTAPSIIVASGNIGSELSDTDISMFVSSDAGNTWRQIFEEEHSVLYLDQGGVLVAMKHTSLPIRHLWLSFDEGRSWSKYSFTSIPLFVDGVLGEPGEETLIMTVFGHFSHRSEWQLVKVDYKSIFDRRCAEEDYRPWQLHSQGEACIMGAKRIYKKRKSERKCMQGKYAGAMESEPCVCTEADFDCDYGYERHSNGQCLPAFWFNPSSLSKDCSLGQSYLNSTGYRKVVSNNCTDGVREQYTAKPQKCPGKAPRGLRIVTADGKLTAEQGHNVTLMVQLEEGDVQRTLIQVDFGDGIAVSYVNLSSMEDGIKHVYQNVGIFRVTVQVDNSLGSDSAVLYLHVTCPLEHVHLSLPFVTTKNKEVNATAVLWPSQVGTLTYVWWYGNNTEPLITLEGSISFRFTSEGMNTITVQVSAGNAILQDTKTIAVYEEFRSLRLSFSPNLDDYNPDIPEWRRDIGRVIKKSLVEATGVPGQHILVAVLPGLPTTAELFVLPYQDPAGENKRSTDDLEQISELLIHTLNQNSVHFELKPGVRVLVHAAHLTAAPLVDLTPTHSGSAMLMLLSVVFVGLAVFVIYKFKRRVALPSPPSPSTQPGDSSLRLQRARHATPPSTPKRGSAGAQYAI

FAS expressed on cells = molecular target: T5, FAS expressed on cells (human, UniProt P25445 26-335); test: cell-cell screen, flow cytometry
T5 construct: whole, on cells
T5 sequence (looked up): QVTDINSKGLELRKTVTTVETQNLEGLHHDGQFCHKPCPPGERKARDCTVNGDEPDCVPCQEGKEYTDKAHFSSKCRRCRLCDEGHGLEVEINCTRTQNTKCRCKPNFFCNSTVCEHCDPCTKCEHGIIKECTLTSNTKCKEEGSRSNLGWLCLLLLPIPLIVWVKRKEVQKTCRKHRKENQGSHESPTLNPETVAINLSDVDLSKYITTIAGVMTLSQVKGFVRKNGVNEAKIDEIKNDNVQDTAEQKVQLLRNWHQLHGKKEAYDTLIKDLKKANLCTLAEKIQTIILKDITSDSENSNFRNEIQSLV
Protocol: (§1) As illustrated, cells were transfected with expression cassettes expressing labeled receptors or labeled ligands, receptor-expressing cells were mixed with ligand-expressing cells and cell-to-cell binding was monitored by detecting the labels associated with the receptor and the ligand. […] Binding was detected using an anti-mIgG2A ab and flow cytometry. The binding curves were fit and the Bmax, EC50, and hill coefficient were calculated using the equation Y=Bmax*Xh/(Kdh+Xh).

TNFR2 expressed on cells = molecular target: T6, TNFR2 expressed on cells (human, UniProt P20333 23-461); test: cell-cell screen, flow cytometry
T6 construct: whole, on cells
T6 sequence (looked up): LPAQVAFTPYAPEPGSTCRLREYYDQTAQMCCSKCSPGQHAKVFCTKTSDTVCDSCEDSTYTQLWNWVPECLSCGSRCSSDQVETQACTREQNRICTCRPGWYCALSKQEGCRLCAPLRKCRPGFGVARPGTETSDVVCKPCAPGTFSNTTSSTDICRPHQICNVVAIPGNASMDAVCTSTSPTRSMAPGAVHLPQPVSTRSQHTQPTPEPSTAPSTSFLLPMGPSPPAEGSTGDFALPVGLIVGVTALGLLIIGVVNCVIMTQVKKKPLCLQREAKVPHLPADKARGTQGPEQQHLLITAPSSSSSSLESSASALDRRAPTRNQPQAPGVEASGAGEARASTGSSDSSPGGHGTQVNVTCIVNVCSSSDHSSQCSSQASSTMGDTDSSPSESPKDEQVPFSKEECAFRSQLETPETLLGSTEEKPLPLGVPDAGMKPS
Protocol: as §1

Measured: binding result

T3 sequence (Q96PQ0 51-1159 limits assumed): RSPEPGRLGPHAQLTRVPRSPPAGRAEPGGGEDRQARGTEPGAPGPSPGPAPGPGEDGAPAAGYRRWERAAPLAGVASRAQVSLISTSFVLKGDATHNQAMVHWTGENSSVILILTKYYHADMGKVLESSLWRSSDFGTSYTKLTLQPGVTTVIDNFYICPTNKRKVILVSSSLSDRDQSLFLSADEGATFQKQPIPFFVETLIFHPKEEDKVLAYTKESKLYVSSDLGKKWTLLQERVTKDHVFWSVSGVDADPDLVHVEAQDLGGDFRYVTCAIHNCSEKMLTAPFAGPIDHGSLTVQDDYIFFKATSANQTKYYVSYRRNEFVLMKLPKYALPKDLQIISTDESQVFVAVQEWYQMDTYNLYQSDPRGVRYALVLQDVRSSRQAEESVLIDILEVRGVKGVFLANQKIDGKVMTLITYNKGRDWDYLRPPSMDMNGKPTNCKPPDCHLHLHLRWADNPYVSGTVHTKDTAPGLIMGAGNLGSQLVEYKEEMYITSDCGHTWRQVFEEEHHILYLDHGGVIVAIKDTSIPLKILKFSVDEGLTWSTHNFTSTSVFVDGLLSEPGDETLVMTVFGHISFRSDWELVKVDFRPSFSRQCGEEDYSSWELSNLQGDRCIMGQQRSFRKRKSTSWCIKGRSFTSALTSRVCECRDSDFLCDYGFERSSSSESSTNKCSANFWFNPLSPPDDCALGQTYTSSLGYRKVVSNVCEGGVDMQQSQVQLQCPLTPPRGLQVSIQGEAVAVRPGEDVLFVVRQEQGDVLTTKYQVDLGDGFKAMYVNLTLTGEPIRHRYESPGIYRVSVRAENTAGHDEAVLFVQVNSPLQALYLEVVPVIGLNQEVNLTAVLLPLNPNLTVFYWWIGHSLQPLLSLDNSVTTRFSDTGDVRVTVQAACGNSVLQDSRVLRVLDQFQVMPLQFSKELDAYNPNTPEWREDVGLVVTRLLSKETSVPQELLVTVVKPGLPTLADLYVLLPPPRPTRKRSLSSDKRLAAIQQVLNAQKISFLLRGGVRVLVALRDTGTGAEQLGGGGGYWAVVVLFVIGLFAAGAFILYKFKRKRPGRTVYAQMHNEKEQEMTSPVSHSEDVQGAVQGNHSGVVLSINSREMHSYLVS

B1: human B7-1 (CD80), full length, expressed on HEK 293 cells (ligand)
chain: VIHVTYEVKEVATLSCGHNVSVEELAQTRIYWQKEKKMVLTMMSGDMNIWPEYKNRTIFDITNNLSIVILALRPSDEGTYECVVLKYEKDAFKREHLAEVTLSVKADFPTPSISDFEIPTSNIRRIICSTSGGFPEPHLSWLENGEELNAINTTVSQDPETELYAVSSKLDFNMTTNHSFMCLIKYGHLRVNQTFNWNTTKQEHFPDNLLPSWAITLISVNGIFVICCLTYCFAPRCRERRRNERL
notes: also called hB7-1; B7-1-mCherry
no binding: all assays above
